Reference: article PMC8992277 (ACS Omega, 2022)

Molecular target: T1, Human neuroglobin (human, UniProt Q9NPG2 1-151)
T1 sequence (looked up): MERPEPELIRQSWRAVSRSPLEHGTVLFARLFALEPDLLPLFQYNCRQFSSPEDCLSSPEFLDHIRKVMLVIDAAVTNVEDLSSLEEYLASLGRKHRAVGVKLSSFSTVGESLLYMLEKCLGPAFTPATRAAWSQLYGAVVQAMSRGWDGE
Assay: ITC

Ka: 5300 M⁻¹
Kd: 189 µM
dH, fold of that of WT hCyt c binding to Ngb: ~6 fold
B1: Human cytochrome c I81N variant (natural protein)
chain: not shown
modifications: heme c covalently linked to the peptide chain via two thioether bonds through the CXXCH motif
